# Data reported in PMC3064780 (Nucleic Acids Research, 2010).
# Substitutions are numbered along the chain they refer to. Numbers in names are those of the source.
# T1: eIF4A (Saccharomyces cerevisiae, UniProt P10081)
# T1 sequence (P10081 1-395): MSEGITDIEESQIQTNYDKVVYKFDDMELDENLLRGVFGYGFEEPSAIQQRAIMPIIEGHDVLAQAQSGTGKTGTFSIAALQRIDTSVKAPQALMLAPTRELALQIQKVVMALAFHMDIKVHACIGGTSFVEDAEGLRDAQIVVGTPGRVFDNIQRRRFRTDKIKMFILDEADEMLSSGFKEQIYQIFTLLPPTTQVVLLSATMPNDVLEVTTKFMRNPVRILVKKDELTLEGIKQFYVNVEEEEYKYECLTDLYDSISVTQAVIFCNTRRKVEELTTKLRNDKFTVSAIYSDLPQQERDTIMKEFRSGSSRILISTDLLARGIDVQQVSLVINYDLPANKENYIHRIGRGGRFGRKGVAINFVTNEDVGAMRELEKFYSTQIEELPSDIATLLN
# T2: eIF4A/eIF4G_mid complex (Saccharomyces cerevisiae, UniProt P10081)
# T2 sequence (P10081 1-395): T1 sequence (P10081 1-395)
# T2 sequence (P39935 572-853 K590R partner): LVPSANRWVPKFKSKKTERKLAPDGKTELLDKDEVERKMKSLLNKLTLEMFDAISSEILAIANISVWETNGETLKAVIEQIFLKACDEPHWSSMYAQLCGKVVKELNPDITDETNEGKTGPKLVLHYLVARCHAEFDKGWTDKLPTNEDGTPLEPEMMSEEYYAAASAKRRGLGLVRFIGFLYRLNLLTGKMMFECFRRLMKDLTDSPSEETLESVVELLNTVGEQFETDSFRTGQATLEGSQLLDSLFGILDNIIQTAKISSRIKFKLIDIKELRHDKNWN
# T3: eukaryotic translation initiation factor 4A (eIF4A) (yeast, UniProt P10081 1-395)
# T3 sequence (looked up): T1 sequence (P10081 1-395)
# T4: eIF4A_E43R (yeast, UniProt P10081 1-395, E43R)
# T4 sequence (looked up): T1 sequence (P10081 1-395) with E43R
# B1: eIF4G_K831E/S834D/R835E (domain or fragment, yeast, UniProt P39935 572-853, looked up)
# chain: T2 sequence (P39935 572-853 K590R partner) with K260E, S263D, R264E
# B2: eIF4G_R835E (domain or fragment, yeast, UniProt P39935 572-853, looked up)
# chain: T2 sequence (P39935 572-853 K590R partner) with R264E
# B3: eIF4G_mid (aa 572–853 of eIF4G, middle domain) (domain or fragment, yeast, UniProt P39935 572-853, looked up)
# chain: T2 sequence (P39935 572-853 K590R partner)
# Experiments:
# eIF4A [1] = biological target: T1, eIF4A; test: competitive titration of the mantADP/protein complex, or ITC; format: binding; details: pH 7.5, 80 mM KCl, Mg2+; without eIF4G
# eIF4A/eIF4G_mid complex [2] = biological target: T2, eIF4A/eIF4G_mid complex; test: as above; format: binding; details: pH 7.5, 80 mM KCl, Mg2+; eIF4G_mid present
# eIF4A/eIF4G_mid complex [3] = biological target: T2, eIF4A/eIF4G_mid complex; test: ITC or competitive titration; format: binding; details: pH 7.5, 80 mM KCl, Mg2+; eIF4G_mid present
# eIF4A [4] = biological target: T1, eIF4A; test: ITC or competitive titration; format: binding; details: pH 7.5, 80 mM KCl, Mg2+; without eIF4G
# [5] = biological target: eIF4G_mid (aa 572–853 of eIF4G, middle domain) (yeast) (UniProt P39935); test: ITC
# [6] = biological target: T3, eukaryotic translation initiation …; test: ITC
# eIF4A_E43R = biological target: T4, eIF4A_E43R; test: ITC
molecule,measurement,setting,value
Nc1ncnc2c1ncn2[C@@H]1O[C@H](COP(=O)(O)OP(=O)(O)O)[C@@H](O)[C@H]1O [ADP],Kd,eIF4A [1],the affinity of eIF4A for ADP and ATP is moderately decreased in the presence of eIF4G
same,Kd,eIF4A/eIF4G_mid complex [2],the affinity of eIF4A for ADP and ATP is moderately decreased in the presence of eIF4G
Nc1ncnc2c1ncn2[C@@H]1O[C@H](COP(=O)(O)OP(=O)(O)OP(=O)(O)O)[C@@H](O)[C@H]1O [ATP],Kd,eIF4A/eIF4G_mid complex [3],the affinity of eIF4A for ADP and ATP is moderately decreased in the presence of eIF4G
same,Kd,eIF4A [4],the affinity of eIF4A for ADP and ATP is moderately decreased in the presence of eIF4G
eIF4A-RecA_C (aa 226-406) (domain or fragment),Kd,[5],1300 nM
B1,Kd,[6],1100 ± 100 nM
B2,Kd,[6],1000 ± 100 nM
B3,Kd,eIF4A_E43R,200 ± 20 nM
same,Kd,[6],600 ± 100 nM
